The nature of the data set: label from the status in PepcDB records.

As for “SEILRKFKILGRSKSPIFAFTVTAGLALTAVTGSATAVSIFRDSPSNKIATAVEGVVRSSRAIYSITLTVADYKYTLRRLPADSDEYLQRLTEVHSRSAKRILKLCESNKGFYVKAGQFVATLKLVPKEYSLALSSLQDKAVPCNFQEIKQVLTSNLGQNLTEIYLSFDEEPIAAASIAQVHHAVLKNHQEVAVKVQYPGLKQNMMLDTMIMSFLSKSVAKIFPEYRFDWLVYEFVKSISQELDFLQEAKNSERIAKNFKHNKMITIPTVFSEFTTTQVLTMQFCKGFKVDDVESLKRTNVSPEKVAKVLVEVFAEMIFVHGFIHGDPHPGNILVSPEGQNGFSLVLLDHGNCKTLDEAFRRDFCRLWEALILLDSNKIQELGKQFGVGKYAKFFPVIFTGRTSESGLIRSITLKLGAPQRVRLLAYAKYAVYGLGYKPTSEPDFVEKSVISRSVMLMSYLRLRLILELMELFQGMKKLKHTIYGFYGQLVGGITNSVKRITCSV”, the protein production entry was “failed”.

For “SEQSSPGFRQTHLQDLSEATQDVKEENHYLTPRSVLLELDNIIASSDSGESIETDGPDQVSGRIECHYEPMESYFFKETSHESVDSSKEEPQTLPETQDGDLHLQEQGSGIDWCLSPADVEAQTTNDQKGSASLTVVQLSILINNIPDESQVEKLNVFLSPPDVINYLALTEATGRICVSQWEGPRRLGCIFCHGDHLLAVNDLKPQSLEEVSLFLTRSIQKEKLKLTIGRIPNSETFHAASCMCPSKCQSAAPSQLDKPRLNRAPKRSPAIKKSQQKGARE”, the protein production result is “not failed”. On to “SGARRQALIDAQSWRLRYERIMREVGVATVEYEAASGRATWGMGAGKVLGEDVARISSLDEWLEHIAPDERGLVEATWSSVASGETWASEQSYTLMRTDGEPLRVRERLACVRGADDSVEMVVGMLRPEPLESGDG”, for which the protein production result is given as “failed”.

With “SGCRCCKIIQSYLFDPVQVPSPGYVNEVNSCKLDEDDTDKLKGKWSSEVLVQKNDPQRQGSKKTESSSRTADPWEPCWPHQGPLPQGDAGGEHHACGVNGIGPAATPQPTGNSSPTQDDRGSWASTANTVPPTQPFLEGGGTRKQDCVLLASEGTQVMRNGDSRAPSEAESFALEVQDHVFQIPAPDYLQHWGPAGDNVDHNEKDCVFKNHTEDESLEGIQPPVGEHGLNTPFSVRRSWDSLNEDVETEVLSICFNEKGPVHAMPVVDSGNRQEDTHGSDGDGDGEIVDEDAAVAEALAALEAATAGEDLDETD”, the protein production result is on record as “not failed”. On to “SGFRKMAFPSGKVEGCMVQVTCGTTTLNGLWLDDTVYCPRHVICTAEDMLNPNYEDLLIRKSNHSFLVQAGNVQLRVIGHSMQNCLLRLKVDTSNPKTPKYKFVRIQPGQTFSVLACYNGSPSGVYQCAMRPNHTIKGSFLNGSCGSVGFNIDYDCVSFCYMHHMELPTGVHAGTDLEGKFYGPFVDRQTAQAAGTDTTITLNVLAWLYAAVINGDRWFLNRFTTTLNDFNLVAMKYNYEPLTQDHVDILGPLSAQTGIAVLDMCAALKELLQNGMNGRTILGSTILEDEFTPFDVVRQCSGVTFQ”, for which the protein production entry is “not failed”. In the case of “SGIIKMAIRFDRRAYPPQITPKMCLLEWCRREKLPQPVYETVQRTIDRMFCSVVTVAEQKYQSTLWDKSKKLAEQTAAIVCLRSQGLPEGRLGEESPSLNKRKREAPDQDPGGPR”, the protein production result was “not failed”. In the case of “SGSSMEEKVVAVIMVGGPTKGTRFRPLSLNIPKPLFPIAGQPMVHHPISACKRIPNLAQIYLVGFYEEREFALYVSAISNELKVPVRYLREDKPHGSAGGLYHFRNLIMEDSPSHIFLLNCDVCCSFPLPKMLEAHRGYGGIGTLLVIKVSPESASQFGELVADPVTNELLHYTEKPETFVSDRINCGVYVFTPEIFNAIGDVSTQRKDRATLKRVSSFEALQPATRIPTDFVRLDQDILSPLAGKKRLYTYETMDFWEQIKSPGMSLRCSGLYLSQFRLTSPQLLASGDGTRSAIVIGDVYIHPSAKVHPTAKIGPNVSISANARVGPGVRLMSCIILDDVEIMENAVVTNAIVGWKSSIGRWSRVQAEGVYNSKLGVTILGDSVAVEDEVAVTSSIVLPNKTLNVSVQDEIIL” it was “failed”.

Consider “SHMEIVPDTSVVIDGRVSDQVKADADPDTDVDGMGFAGATVVVPEAVVGELEAQANDGRETGWEGLEELQTLVDLAEEGTIDVEYVGRRPDAIEKREAGEGQIDALIRDIAGDRDATLVTSDDVQAEVARAKGLAVEFVDPVKRTVDRLQI”, for which the protein production entry is on record as “not failed”.

In the case of “SHPCFVQGRPELLSQIKRKQSARTVEDKQVNEQTQQNLEVVMAEMRAMREKAKNMEDKMNKLTKENRDMWTQMGSMRQQHARQQQYFKKLLHFLVSVMQPGLSKRVAKRGVLEIDFCAANGTAGPNSKRARMNSEEGPYKDVCDLLESLQRETQEPFSRRFTNNEGPLISEVTDEFGNSPVGRGSAQDLFGDTFGAQSSRYSDGGATSSREQSPHPIISQPQSNSAGAHGANEQKPDDMYMGSGPLTHENIHRGISALKRDYQGASPASGGPSTSSSAPSGAGAGARMAQKRAAPYKNATRQMAQPQQDYSGGFVNNYSGFMPSDPSMIPYQPSHQYLQPHQKLMAIEDQHHPTTSTSSTNADPHQNLYSPTLGLSPSFDRQLSQELQEYFTGTDTSLESFRDLVSNHNWDDFGNNVPLDDDEEGSEDPLRQLALENAPETSNYDGAEDLLFDNEQQYPENGFDVPDPNYLPLADEEIFPHSPALRTPSPSDPNLV”, the protein production result is on record as “not failed”.

For “SINKVLDHFRRKGINQHVQNGYHGIVMNNFECEPAFYTCVEVTAGNRLFYHIVDSDEVSTKILMEFNKMNLPGEVTFLPLNKLDVRDTAYPETNDAIPMISKLRYNPRFDKAFKHVFGKTLICRSMEVSTQLARAFTMDCITLEGDQVSHRGALTGGYYDTRKSRLELQKDVRKAEEELGELEA”, the protein production entry is given as “failed”. In the case of “SKVEVIYKELGKQHRFSFKGQIFFVSIDSMMEKIDFNIEDSVIVLNFDHAHLWDDSAVNAIDTIVRKFEEKNNVVYVEKLNADSRKIISELSYLNETHL” it was “failed”; in that of “SKVWKYFGFDTNAEGCILQWKKIYCRICMAQIAYSGNTSNLSYHLEKNHPEEFCEFVKSN”, “not failed”; in that of “SLDDDDYPAYTMGRAAAILGTTPAFLRALGDARLITPLRSEGGHRRYSRYQLRIAARARELVDQGTPVEAACRIIILEDQLEDALRLNEEMRRSSDQPTA”, “failed”. In the case of “SLGSLPPAAMESMESLRLKDKNEPVQNLPIQKSIDDVDSKLKGIGKPRKFSKFSLYKQLHRHHLHDADSISSIDSTSSYFNHYRSHHNLIHGLKPHFKLFHPSS” it was “failed”. In the case of “SLKKNPRDIVTKKANIRIKTALSKMFNAMAKVTYDIDEADGDVIVNTAFIDKKYLDEAFDILKEAYKKGLGISDRFGIVEENDRIKIQTICAVTLDGIFLRNSVPLIPKYGGILEITEDKERFIDIIGYDGSSLDPHEVFFNFVDCEKTFLAGFREVHRVAREKLEEVLKKLNWNGIKAIGEPNNELYGIGVNKDMCGVVTMGGINPLVLLKENEIPIELKAMHEVVRFSDLKSYKEI” it was “not failed”.

Turning to “SLKKVITVNEWYTTTVAATMLGRRPTDEDAILVSAPATSRPNVRIKAVFDGHAGEATSQYCAKHAAKHLGKLSEFTFAEVKKACLSLDAEIIRKLGPKHVAGSTGIIVAIERLSAPVVENVVGREIVPRAHEETFVPLEKLIQEEEEAEHPELVGRYPRVPDVQQKTIPAGSFLVTAINIGDSRATLIHSDGGLTRLSKDHKPNHPTEASRIEKAGGSVETFDVPRVDGVLALSRAFGDSDFKMNPNLPPEEQKVIAVPDVRQFYALSSDLLLLACDGVYEPSGMDWAYVRDLTVAEMQRSKGDLEEVAARVMDYAYDMNSQDNISVMLVAFHNQEVEHPTAVYKVVSGQVDKVEWDVAGKKGN”, the protein production result is listed as “not failed”. In the case of “SLLDVAVSPDDRFILTADRDEKIRVSWAAAPHSIESFCLGHTEFVSRISVVPTQPGLLLSSSGDGTLRLWEYRSGRQLHCCHLASLQELVDPQAPQKFAASRIAFWCQENCVALLCDGTSVVYIFQLDARRQQLVYRQQLAFQHQVWDVAFEETQGLWVLQDCQEAPLVLYRPVGDQWQSVPESTVLKKVSGVLRGNWAMLEGSAGADASFSSLYKATFDNVTSYLKKKEERLQQQLEKKQRRRSPPPGPDGHAKKMRPGEATLSC” it was “failed”.

For the origin of these results see a protein production outcome set (Wang et al. 2014).
